Assay [1] deals with CP-capped actin filament barbed end (BC) (rabbit | not stated) (UniProt P68135). In words: microfluidics-assisted single-filament fluorescence microscopy (kinetics of elongation changes); set-up #2: biotin-SNAP-mDia1 anchored on neutravidin coverslip, insertional barbed-end assembly; exposed to CP + unlabelled PA, then PA alone; detachment = BFC→BC+F, resumed growth = BFC→BF+C; F-buffer pH 7.8, 50 mM KCl, room temperature.

Assay [2] shares this target. In words: microfluidics-assisted single-filament fluorescence microscopy (kinetics of elongation changes); set-up #1: CP-capped barbed ends (BC) exposed to formin without PA for T_(expo) (BC+F→BCF), then PA alone (constants 'from BCF'); k′+F from a fit, not measured directly; F-buffer pH 7.8, 50 mM KCl, room temperature.
Assay [3] has as its target actin filament free barbed end (B) (rabbit) (UniProt P68135). In words: microfluidics-assisted single-filament fluorescence microscopy (kinetics of elongation changes); set-up #1: filaments from surface-anchored spectrin–actin seeds, free barbed ends exposed to flows of CP or formin with profilin-actin (1 μM actin, 4 μM profilin); off-rates in PA alone; F-buffer pH 7.8, 50 mM KCl, room temperature; KD from the rate constants.

Assay [4] addresses CP-capped actin filament barbed end (BC) (rabbit | not stated) (UniProt P68135). The assay is described as follows: microfluidics-assisted single-filament fluorescence microscopy (kinetics of elongation changes); set-up #1: formin-bound barbed ends (BF) exposed to CP + PA (BF+C→BFC), then PA alone (constants 'from BFC'); unlabelled formin; F-buffer pH 7.8, 50 mM KCl, room temperature.

As to “biotinylated SNAP-mDia1(FH1–FH2–DAD)-His (from UniProt O60610 1-1272) (domain or fragment)”, the Kd in assay [1] stood at 4 nM.
In assay [2], “GST–FH1(8P)–FH2–C of formin FMNL2 (from UniProt Q96PY5-3 1-1092) (domain or fragment)” came in with a koff of 0.0094 s⁻¹ and an on-rate constant (kon) of 115000 M⁻¹ s⁻¹. The substance also registered a kon in assay [3] of 1.54e+06 M⁻¹ s⁻¹.
As for “FH1–FH2–DAD domain of human formin mDia1 (unlabelled) (from UniProt O60610 583-1272) (domain or fragment)”, in assay [4], the Kd was in the range of 3 to 4 nM and the koff is 0.0042 s⁻¹. In addition, in assay [2], the koff was determined as 0.0062 s⁻¹ and the kon is 1.6e+06 M⁻¹ s⁻¹.

(Values after publication PMC4660058.)
